Experimental findings from patent US20250114467A1 (SHANGHAI FUDAN ZHANGJIANG BIO PHARMACEUTICAL, published 2025) are described below.

For the experiment, the target named is T1, mouse DLL3 on overexpressing cells (plasmid pCMV3-mDLL3, MG58052-UT) (mouse, UniProt O88516 33-592).
T1 construct: whole, on cells
T1 sequence (looked up): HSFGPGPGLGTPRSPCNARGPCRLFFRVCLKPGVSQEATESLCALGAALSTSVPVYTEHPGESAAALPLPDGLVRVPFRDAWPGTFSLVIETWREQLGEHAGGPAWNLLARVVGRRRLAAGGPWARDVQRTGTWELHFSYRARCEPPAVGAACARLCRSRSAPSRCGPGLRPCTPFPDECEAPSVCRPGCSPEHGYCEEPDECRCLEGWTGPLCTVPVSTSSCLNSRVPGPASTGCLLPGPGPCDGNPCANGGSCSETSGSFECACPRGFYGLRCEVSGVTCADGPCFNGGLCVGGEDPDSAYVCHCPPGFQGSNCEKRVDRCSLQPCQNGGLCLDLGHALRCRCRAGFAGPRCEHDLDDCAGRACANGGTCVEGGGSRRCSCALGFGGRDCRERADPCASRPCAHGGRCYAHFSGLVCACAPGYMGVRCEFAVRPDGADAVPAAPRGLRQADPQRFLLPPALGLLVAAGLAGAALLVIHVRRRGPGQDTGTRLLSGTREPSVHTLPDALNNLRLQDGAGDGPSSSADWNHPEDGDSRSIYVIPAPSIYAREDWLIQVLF
The experiment in a line: flow cytometry on cells overexpressing mouse DLL3, APC goat anti-human IgG, MFI [left panel]. As to the method:
After washing with 80 μl of PBST (0.1% Tween20) for five times, 25 μl of HRP-labeled goat anti-human secondary antibody (Jackson, 1:10000) was added to each well and incubated at room temperature for 1 hour, discard the supernatant, and the wells were then washed seven times with 80 μl of PBST (0.1% Tween20). After adding 25 μl of TMB chromogen solution for 10 minutes, the reaction was terminated with 2M HCl, and the absorbance value at 450 nm was measured with a Microplate reader (purchased from Biotek, Elx808). […] The binding abilities of the chimeric antibodies to these cells were determined by flow cytometry to assess the cross-reactivity of the antibodies with different species. […] The chimeric antibodies, FDA027, and FDA031 were pre-diluted to 50 μg/ml, and further diluted in a 4-fold gradient across 8 concentration points, with 200 μL of the antibodies to be detected of different concentrations added to each well and incubated on ice for 30 minutes. […] After washing with PBS four times, 100 μL PBS was added to each well to resuspend the cells, which were then analyzed using CytoFLEX (Beckman).

B1: ch32E8 (antibody, human IgG1, kappa, V domains shown)
VH: QVTLKESGPGILQPSQTLSLTCSFSGFSLSTSGMGVGWIRQPSGKGLEWLALIWWDDVKRYHPALKSRLTISKDTSSSQVFLKIASVDTADTATYYCARIAEVTGQVGLHYAMDYWGQGTSVTVSS
VL: QTVLTQSPAIMSASLGERVTMTCTASSSVNSSSLHWYQQKPGSSPKLWIYTTSNLASGVPARFSGSGSGTSYSLTISSMEAEDAATYYCHQFHRSPFTFGSGTKLEIKR
notes: Chimeric: murine variable regions on human IgG1 heavy and kappa light constant regions; also called chimeric antibody 32E8
For the molecule B1, the binding result is “no binding (tested: 50 µg/ml)”.

B2: ch15G2 (antibody, human IgG1, kappa, V domains shown)
VH: EVQLQQSGPELEKPGASVRISCKASGYSFTDYNMHWVKQSNGKSLEWIGNIDPYYGGTNYNQKFEGKATLTVDKSSSTAYMQLKSLTSEDSAVYYCARGGNNYGDYWGQGTTLTVSS
VL: DIQMTQSPASLAASVGETVTITCRASENIYYSLAWYQQKQGKSPQLLIFNANSLEDGVPSRFSGSGSGTQYSMKINSMQPEDTATYFCKQAYDVPWTFGGGTKLEIKR
notes: Chimeric: murine variable regions on human IgG1 heavy and kappa light constant regions; also called chimeric antibody 15G2
With B2, the binding result is reported as “no binding (tested: 50 µg/ml)”.
